Experiment [1] has as its target human recombinant GAPDH protein (human) (UniProt P04406). Briefly: nano-DSF (thermal shift, Prometheus NT.48); human GAPDH 1 μM with 500 μM dipeptide in 10 mM Tris-HCl pH 7.5, 0.5 M NaCl; thermal ramp 2 °C/min, 20–90 °C; Tm from F350/F330. (In general: Differential scanning fluorimetry follows unfolding on heating by fluorescence.)
Experiment [2] has as its target His6-GAPCP1 (A. thaliana) (UniProt Q9SAJ6). Briefly: nano-DSF (thermal shift, Prometheus NT.48); plant GAPCs 0.2–0.25 mg/ml with 25 μM (GAPC1/2, GAPCP1) or 50 μM (GAPCP2) dipeptide in 1× PBS; thermal ramp 2 °C/min, 20–90 °C; Tm from F350/F330.
The target of experiment [3] is His6-GAPCP2 (A. thaliana) (UniProt Q5E924). Described as above.
Sequence of His6-GAPCP2 (A. thaliana) (Q5E924 67-420): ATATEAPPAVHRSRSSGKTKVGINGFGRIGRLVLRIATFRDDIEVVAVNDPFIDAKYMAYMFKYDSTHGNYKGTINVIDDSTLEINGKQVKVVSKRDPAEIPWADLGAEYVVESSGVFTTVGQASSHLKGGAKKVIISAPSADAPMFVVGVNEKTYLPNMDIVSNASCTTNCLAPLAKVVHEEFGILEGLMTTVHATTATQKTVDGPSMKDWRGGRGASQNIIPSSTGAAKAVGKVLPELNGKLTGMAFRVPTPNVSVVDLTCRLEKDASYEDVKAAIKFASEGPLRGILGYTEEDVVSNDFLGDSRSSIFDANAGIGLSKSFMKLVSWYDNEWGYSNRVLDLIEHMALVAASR

Sequence of human recombinant GAPDH protein (human) (P04406 whole entry): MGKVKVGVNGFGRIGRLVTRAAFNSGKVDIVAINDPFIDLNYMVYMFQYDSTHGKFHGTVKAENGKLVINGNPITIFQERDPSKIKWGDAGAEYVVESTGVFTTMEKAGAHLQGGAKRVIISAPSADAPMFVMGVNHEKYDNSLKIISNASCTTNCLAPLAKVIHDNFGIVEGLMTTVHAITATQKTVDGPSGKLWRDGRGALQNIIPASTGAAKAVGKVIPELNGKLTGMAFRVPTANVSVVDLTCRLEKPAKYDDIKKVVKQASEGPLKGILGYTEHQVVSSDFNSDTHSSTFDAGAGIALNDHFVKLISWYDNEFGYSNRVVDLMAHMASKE
Sequence of His6-GAPCP1 (A. thaliana) (Q9SAJ6 70-422): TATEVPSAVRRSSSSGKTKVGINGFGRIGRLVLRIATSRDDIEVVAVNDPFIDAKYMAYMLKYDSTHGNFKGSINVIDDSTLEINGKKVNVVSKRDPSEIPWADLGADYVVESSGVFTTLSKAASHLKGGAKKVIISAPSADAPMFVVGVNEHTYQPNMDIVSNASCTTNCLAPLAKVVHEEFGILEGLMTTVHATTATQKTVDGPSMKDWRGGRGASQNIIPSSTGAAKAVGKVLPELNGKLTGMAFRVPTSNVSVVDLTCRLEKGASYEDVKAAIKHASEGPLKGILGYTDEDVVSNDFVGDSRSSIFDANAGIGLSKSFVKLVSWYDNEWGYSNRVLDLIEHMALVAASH

In the case of dipeptide Tyr–Asp, the increase of Tm with 500 μM Tyr–Asp in experiment [1] worked out at 1.1 °C. The decrease of Tm with 25 μM Tyr–Asp in experiment [2] is 2 °C. Moreover, the decrease of Tm with 50 μM Tyr–Asp in experiment [3] came out at 1.5 °C.

Values taken from paper PMC6093232, “PROMIS, global analysis of PROtein–metabolite interactions using size separation in Arabidopsis thaliana” (The Journal of Biological Chemistry, 2018).
